The values that follow come from US6951917.

The experiment has as its target HLA-DR on 1088-EBV cells (autologous EBV-B cells of patient 1088) (human). Put plainly: cell-based or functional assay.

B1: monoclonal antibody L243 (anti-HLA-DR; IgG2a) (antibody, from another filing, V domains shown)
VH: QIQLVQSGPELKKPGETVKISCKASGFTFTNYGMNWVKQAPGKGLKWMGWINTYTREPTYADDFKGRFAFSLETSASTAYLQINNLKNEDTAKYFCARDITAVVPTGFDYWGQGTTLTVSS
VL: DIQMTQSPASLSVSVGETVTITCRASENIYSNLAWYRQKQGKSPQLLVFAASNLADGVPSRFSGSGSGTQYSLKINSLQSEDFGDYYCQHFWTTPWAFGGGTNLEIKR
In turn, B1 displayed an inhibition of GM-CSF secretion by CD4+ TIL 1088 stimulated with 1088-EBV pulsed with autologous melanoma lysate (mAb 23 ug/ml) of 96%.
